Experimental data from publication doi:10.1101/2021.04.12.439405 (bioRxiv, 2021).

Target: T1, MukB^K1114E (E. coli, UniProt P22523 1-1486, K1114E)
T1 sequence (looked up): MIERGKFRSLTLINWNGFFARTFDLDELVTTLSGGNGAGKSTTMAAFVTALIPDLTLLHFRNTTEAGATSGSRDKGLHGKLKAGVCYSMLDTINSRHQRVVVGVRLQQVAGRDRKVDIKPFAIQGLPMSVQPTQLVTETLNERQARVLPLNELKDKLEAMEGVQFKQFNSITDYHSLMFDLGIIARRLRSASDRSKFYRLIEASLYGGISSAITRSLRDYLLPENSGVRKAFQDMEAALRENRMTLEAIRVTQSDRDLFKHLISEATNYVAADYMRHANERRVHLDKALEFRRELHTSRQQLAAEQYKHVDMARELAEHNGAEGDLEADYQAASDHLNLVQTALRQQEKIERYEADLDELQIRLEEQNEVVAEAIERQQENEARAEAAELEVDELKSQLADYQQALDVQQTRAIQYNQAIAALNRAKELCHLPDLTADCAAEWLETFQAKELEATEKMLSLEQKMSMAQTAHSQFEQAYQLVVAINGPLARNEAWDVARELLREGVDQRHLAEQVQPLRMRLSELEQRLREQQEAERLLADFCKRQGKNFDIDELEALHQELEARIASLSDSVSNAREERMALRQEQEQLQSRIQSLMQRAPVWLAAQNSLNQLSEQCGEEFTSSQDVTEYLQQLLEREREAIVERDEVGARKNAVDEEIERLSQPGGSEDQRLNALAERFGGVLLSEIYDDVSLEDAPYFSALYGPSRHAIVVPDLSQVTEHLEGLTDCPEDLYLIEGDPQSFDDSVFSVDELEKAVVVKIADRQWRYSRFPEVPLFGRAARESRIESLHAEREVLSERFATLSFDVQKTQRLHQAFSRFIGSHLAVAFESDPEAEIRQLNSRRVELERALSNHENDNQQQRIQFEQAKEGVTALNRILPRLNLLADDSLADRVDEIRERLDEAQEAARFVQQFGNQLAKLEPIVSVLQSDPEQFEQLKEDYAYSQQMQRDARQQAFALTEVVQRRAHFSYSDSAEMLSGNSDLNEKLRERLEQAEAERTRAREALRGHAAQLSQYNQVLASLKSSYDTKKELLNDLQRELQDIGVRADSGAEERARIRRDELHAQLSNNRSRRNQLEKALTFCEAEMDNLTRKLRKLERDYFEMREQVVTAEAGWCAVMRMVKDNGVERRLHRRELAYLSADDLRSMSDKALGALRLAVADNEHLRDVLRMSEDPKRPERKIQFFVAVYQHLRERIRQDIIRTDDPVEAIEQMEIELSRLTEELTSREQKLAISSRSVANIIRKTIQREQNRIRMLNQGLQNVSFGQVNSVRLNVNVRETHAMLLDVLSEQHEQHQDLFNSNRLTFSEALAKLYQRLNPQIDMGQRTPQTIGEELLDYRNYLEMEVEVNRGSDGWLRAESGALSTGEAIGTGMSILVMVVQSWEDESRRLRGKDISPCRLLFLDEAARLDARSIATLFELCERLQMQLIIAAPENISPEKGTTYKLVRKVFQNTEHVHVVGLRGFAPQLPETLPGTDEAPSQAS
Experiment: native gel or EMSA

B1: His-MukF (natural protein, E. coli, UniProt P60293 1-440, looked up)
chain: MSEFSQTVPELVAWARKNDFSISLPVDRLSFLLAVATLNGERLDGEMSEGELVDAFRHVSDAFEQTSETIGVRANNAINDMVRQRLLNRFTSEQAEGNAIYRLTPLGIGITDYYIRQREFSTLRLSMQLSIVAGELKRAADAAEEGGDEFHWHRNVYAPLKYSVAEIFDSIDLTQRLMDEQQQQVKDDIAQLLNKDWRAAISSCELLLSETSGTLRELQDTLEAAGDKLQANLLRIQDATMTHDDLHFVDRLVFDLQSKLDRIISWGQQSIDLWIGYDRHVHKFIRTAIDMDKNRVFAQRLRQSVQTYFDEPWALTYANADRLLDMRDEEMALRDEEVTGELPEDLEYEEFNEIREQLAAIIEEQLAVYKTRQVPLDLGLVVREYLSQYPRARHFDVARIVIDQAVRLGVAQADFTGLPAKWQPINDYGAKVQAHVIDKY
- binding result: binds
